Numbering of substitutions follows the chain as printed.
B1: 33H4 (antibody, V domains shown)
VH: EVQLQQSGAELVKPGASVKMSCKAFGYTFTTFPIEWMKQSHGKSLEWIGNFHPYNDQTKYNEEFKGRAKLTIDRSSSTVYLELGRLTSDDSAVYYCARGYYYAFDFWGQGTTLTVSS
VL: DIQMTQSPASLTVSLGQRATISCRASESVDSYGNSYLHWYQQKPGQPPQLLIYLASNLESGVPARFSGSGSRTDFTLTIDPVEADDAATYYCQQNNEDPWTFGGGTKVEIK
B2: 9C3 (antibody, V domains shown)
VH: EVQLVESGGALIQPGGSLRLSCVASGFTISGNYMSWVRQAPGKGLEWVSLIYSGDSTYYADSVKGRFNISRDISKNTVYLQMNSLRVEDTAVYYCVRDGYYVSDMVVWGKGTTVTVSS
VL: DIQMTQSPSSLSASVGDRVTITCRASQGIRNDLGWYQQKPGKAPKRLIYAASSLQSGVPSRFSGSGSGTEFTLTISSLQPEDFATYYCLQHNSYPWTFGQGTKLEIK
modifications: atypical N-linked glycosylation site in the heavy chain between CDR2 and CDR3 at position 69 (kabat #)
B3: 9C3.4 (antibody, V domains shown)
VH: B2 VH with N68A
VL: B2 VL
notes: Variant of 9C3 with the heavy chain N-glycosylation site removed
B4: 9C3.2 (antibody, V domains shown)
VH: B2 VH with N68T
VL: B2 VL
notes: as for B3
B5: 9C3.3 (antibody, V domains shown)
VH: B2 VH with N68S
VL: B2 VL
notes: as for B3
B6: 23E4 (antibody, V domains shown)
VH: EVQLQQSGAELVRPGASVKLSCKASGYTFTNYWMNWVKQRPGQGLEWIGMIDPSDNETHYSQMFKDKATLTVDKSSSTAYMQLISLTSEDSAVYYCAGYYGNFGWFVYWGQGTLVTVSA
VL: DIFMTQTPLSLPVSLGDPASISCRSSQTIVHSNGNTYLEWYLQKPGQSPKLLIYKVSNRFSGVPDRFSGSGSGTDFTLKISRVEAEDLGVYYCFQGSHVPPTFGGGTKVEIK
B7: 10D3 (antibody, V domains shown)
VH: EVQLVESGAEVKKPGSSVKVSCKASGGTLISHAISWVRQVPGQGLEWMGGIIPIFGSANYAQKFQGRVTITADDSTNTAYLELSSLRSEDTAVYYCARELLDVFDIWGQGTMVTVSS
VL: not shown
B8: 15G15.33 (antibody, V domains shown)
VH: QVQLVQSGAEVKKPGSSVKVSCKASGGIFSNHAISWVRQAPGQGLEWMGGIIPIFGTANYAQKFQGRVTITADESTSTAFMELSSLRSEDTAVYYCAREWADVFDIWGQGTMVTVSS
VL: EIVLTQSPLSLPVTPGEPASISCRSSQSLLHSNGYNYLDWYLQKPGQSPQLLIYLGVNSVSGVPDRFSGSGSGTDFTLKISRVEAEDVGVYYCMQALQTPWTFGQGTKVEIK
notes: Variant of 15G15
B9: 15G15.88 (antibody, V domains shown)
VH: B8 VH
VL: B8 VL with V57N, N58Y, S59R
notes: Variant of 15G15
B10: 15G15.83 (antibody, V domains shown)
VH: B8 VH
VL: B8 VL with V57A, N58Y, S59T
notes: Variant of 15G15
B11: 27C6 (antibody, V domains shown)
VH: EVQLQQSGPELVKPGASVKVSCKASGYAFTSYNMYWVKQSHGKSLEWIGYIDPYNGGTRHNQKFKDKATLTVDKSSSTAYMHLNSLTSEDSAVYYCASQNYEYFDYWGQGTTLTVSS
VL: DIVLTQSPKFMSTSVGDRVSITCKASQDVGDAVAWYQQKPGQSPKLLFYWTSTRHTGVPDRFTGSGSGTEFTLTIRNVQSEDLADYFCQQYRSTPLTFGSGTKVEIK
B12: 9C2 (antibody, V domains shown)
VH: QVQLVQSGAEVKKPGSSVKVSCKASGDTFSSYSISWVRQAPGQGLEWMGEIIPIFGTADYAQKFQGRVTITADISTTTAYMELSSLRSEDTAVYYCARTWADAFDIWGQGTMVTVSS
VL: not shown
B13: 33F9 (antibody, V domains shown)
VH: EVQLQQSGPELVKPGASVKMSCKASGYTFTSYVMHWMKQKPGQGLEWIGYINPYNDGTKYNDKFKGKATLTSDKSSSTAYMELSSLTSEDSAVYYCARGSNYEDFAMDYRGQGTSVTVSS
VL: DIVMTQSPASQSASLGESVTITCLASQTIGTWLAWYQQKPGKSPQLLIYAATTLADGVPSRFSGSGSGTKFSFKISSLQAEDFVSYYCQQLYSTPLTFGGGTKVEIK
B14: 7A1 (antibody, V domains shown)
VH: B8 VH with I28T, S30T, N31S, H32Y, I34V, N59D, F80Y, W100L
VL: not shown
B15: 15G15 (antibody, V domains shown)
VH: B8 VH
VL: not shown

What follows are binders tested against T1, Cynomolgus monkey CD33 (cynomolgus monkey) (assay: Scatchard analysis, HEK293AD cells stably expressing cynomolgus CD33; Scatchard analysis on 293-cynCD33 cells).
T1 construct: Used for recombinant CD33 on HEK293AD cells and endogenous CD33 on cynomolgus CD14+/CD33+ myeloid cells; also called cynoCD33; cyno CD33
B1: no binding.

The binders below were run against T2, Human CD33 (human, UniProt P20138 18-364) (assay: FACS titration on EOL-1 cells (endogenous huCD33), geometric mean fluorescence, 0.1-10 µg/ml antibody).
T2 construct: One molecule is used for recombinant CD33 on HEK293AD/293 cells and for endogenous human CD33 on tumor or myeloid cells; the cell is named under assay; also called huCD33; hu CD33
With B2 the EC50 was 0.54 µg/mL.
With B3 the EC50 was 0.23 µg/mL.
B4 showed an EC50 of 0.46 µg/mL.
B5 gave an EC50 of 0.42 µg/mL.

Each binder was assayed against T1, Cynomolgus monkey CD33 (assay: FACS, HEK293AD cells stably expressing cynomolgus CD33).
B6: no binding (tested: 1 mg/ml).

These binders were tested against T2, Human CD33 (assay: Scatchard analysis, [125I]-labeled antibody competed by unlabeled antibody, Molm-13 cells (endogenous CD33)).
B7 was tested, and the Kd was 2.6 nM.
B8 gave a Kd of 0.9 nM.
Work on B9 yielded a Kd of 0.8 nM.
B10 showed a Kd of 0.5 nM.
For B11, the Kd was 23 nM.
B12 was tested, and the Kd was 10.3 nM.
Work on B2 yielded a Kd of 5.8 nM.
B3 showed a Kd of 2.7 nM.
B4 was tested, and the Kd was 2 nM.
In the case of B5, the Kd is reported as 2.2 nM.
For B1, the Kd was 0.6 nM.
B13 gave a Kd of roughly 9.2 nM.

Each binder was assayed against T2, Human CD33 (assay: Scatchard analysis, [125I]-labeled antibody competed by unlabeled antibody, HEK293AD cells stably expressing human CD33).
B7 gave a Kd of 3.3 nM.
Work on B8 yielded a Kd of 0.7 nM.
Binder B9 has a Kd of 0.7 nM.
B10 gave a Kd of 0.5 nM.
B11 showed a Kd of 13.4 nM.
In the case of B12, the Kd is reported as 6.5 nM.
For B2, the Kd was 0.8 nM.
Work on B1 yielded a Kd of 2.4 nM.
B13 showed a Kd of 8.7 nM.

What follows are binders tested against T3, Construct-88B: CD33 Ig-like V (M17-V136 including spacer H137-H143) linked to an irrelevant Ig-like C … (human) (assay: FACS on 293 cells transiently transfected with construct 88B, Dylight-650 labelled antibody at 1-10 µg/ml).
T3 construct: also called Ig-like V domain of huCD33
B7 was tested, and the “Geom. Mean:FL4-H” value was 684.
B14 was tested, and the “Geom. Mean:FL4-H” value was 772.
With B12 the “Geom. Mean:FL4-H” value was 366.

These binders were tested against T4, Construct-88: irrelevant Ig-like V linked to a CD33 Ig-like C (R144-Q228 including TM/CD L229) (human) (assay: FACS on 293 cells transiently transfected with construct 88, Dylight-650 labelled antibody at 1-10 µg/ml).
T4 construct: N-terminal or cytoplasmic tags were attached
With B7 the “Geom. Mean:FL4-H” value was 12.1.
In the case of B14, the “Geom. Mean:FL4-H” value is reported as 13.
With B12 the “Geom. Mean:FL4-H” value was 11.2.

The binders below were run against T3, Construct-88B: CD33 Ig-like V (M17-V136 …) (assay: FACS, Dylight-650 labeled antibody (1-10 ug/ml) on 293 cells transiently transfected with construct 88B).
In the case of B7, the “fold binding over isotype control” value is reported as no less than 100 fold.
With B12 the “fold binding over isotype control” value was no less than 100 fold.

These binders were tested against T1, Cynomolgus monkey CD33 (assay: Scatchard analysis, [125I]-labeled antibody competed by unlabeled antibody, HEK293AD cells stably expressing cynomolgus CD33).
In the case of B7, the Kd is reported as 0.7 nM.
Work on B8 yielded a Kd of 0.3 nM.
With B9 the Kd was 0.2 nM.
In the case of B10, the Kd is reported as 0.2 nM.
Work on B14 yielded a Kd of 0.54 nM.
B11 showed a Kd of 4.5 nM.
B12 showed a Kd of 0.7 nM.
With B2 the Kd was 0.6 nM.
B13 gave a Kd of 0.92 nM.

What follows are binders tested against T5, huCD33 R69G variant (human, UniProt P20138 18-364) (assay: FACS, direct Dylight 488 conjugate, on 293AD cells labelled 'SNPG69R', taken as the SNP variant of paragraph 650).
T5 construct: also called G69 CD33; SNP R69G (r2455069)
In the case of B7, the “Geom. Mean:FL1-H” value is reported as 103.
B15 was tested, and the “Geom. Mean:FL1-H” value was 123.
B14 was tested, and the “Geom. Mean:FL1-H” value was 125.
For B12, the “Geom. Mean:FL1-H” value was 71.7.

Molecular target: T5, huCD33 R69G variant
Test: as above
Remark: another data set of the same source
With B6 the “Geom. Mean:FL1-H” value was 50.1.
With B11 the “Geom. Mean:FL1-H” value was 32.3.
In the case of B1, the “Geom. Mean:FL1-H” value is reported as 78.7.
With B13 the “Geom. Mean:FL1-H” value was 85.2.

Source: patent publication US20170002074A1 (Genentech, published 2017)
